Residue numbers refer to the chain shown, from its start.
Experiments:
[1] = biological target: T1, UGT88C13 (TraesCS2B01G012000) (Triticum aestivum, UniProt A0A3B6BZ82); assay: LC-MS glucosyltransferase assay; type: biochemical; conditions: UDP-glucose as donor, Tris-HCl pH 7.5, 10 mM MgCl2, 37 °C; mainly 7-O-glucosylation
T1 construct: gene LOC123043080; also cloned in pGEX-6p-1 (GST)
T1 sequence (A0A3B6BZ82 1-489): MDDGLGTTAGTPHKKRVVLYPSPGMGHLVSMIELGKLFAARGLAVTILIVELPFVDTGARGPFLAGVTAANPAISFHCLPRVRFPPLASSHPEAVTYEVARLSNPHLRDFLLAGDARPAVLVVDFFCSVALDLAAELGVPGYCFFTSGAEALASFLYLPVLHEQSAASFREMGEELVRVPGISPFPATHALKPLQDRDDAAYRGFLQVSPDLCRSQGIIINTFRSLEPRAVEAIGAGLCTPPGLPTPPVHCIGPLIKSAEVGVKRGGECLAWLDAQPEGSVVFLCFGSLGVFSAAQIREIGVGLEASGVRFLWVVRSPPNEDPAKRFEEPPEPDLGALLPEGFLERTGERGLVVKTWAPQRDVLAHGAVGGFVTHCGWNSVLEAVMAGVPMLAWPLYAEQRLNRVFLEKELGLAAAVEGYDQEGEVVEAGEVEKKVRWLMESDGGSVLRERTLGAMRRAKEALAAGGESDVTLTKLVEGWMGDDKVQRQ

[2] = biological target: T2, UGT88C14 (KN9204 allele of TraesCS2B01G012000) (Triticum aestivum, UniProt Z9F0T2E170); assay: LC-MS glucosyltransferase assay; type: biochemical; conditions: UDP-glucose as donor, Tris-HCl pH 7.5, 10 mM MgCl2, 37 °C; mainly 7-O-glucosylation
T2 construct: full-length natural allele from KN9204, StrepII-tagged, expressed in and purified from N. benthamiana
T2 sequence (Z9F0T2E170 1-489): T1 sequence (A0A3B6BZ82 1-489) with S90P, V363L, A455T

[3] = substrate: O=c1cc(-c2ccc(O)c(O)c2)oc2cc(O)cc(O)c12; assay: LC-MS glucosyltransferase assay; type: biochemical, Triticum aestivum; conditions: UDP-glucose as donor, Tris-HCl pH 7.5, 10 mM MgCl2, 37 °C, mainly 7-O-glucosylation
purified protein [4] = substrate: O=c1c(O)c(-c2ccc(O)cc2)oc2cc(O)cc(O)c12; assay: purified protein; conditions: UDP-glucose as donor, Tris-HCl pH 7.5, 10 mM MgCl2, 37 °C, mainly 7-O-glucosylation
purified protein [5] = substrate: O=c1cc(-c2ccc(O)cc2)oc2cc(O)cc(O)c12; assay: purified protein; conditions: UDP-glucose as donor, Tris-HCl pH 7.5, 10 mM MgCl2, 37 °C, mainly 7-O-glucosylation

O=c1c(O)c(-c2ccc(O)c(O)c2)oc2cc(O)cc(O)c12 [quercetin]
Km [1]: > 1 mM

O=c1cc(-c2ccc(O)cc2)oc2cc(O)cc(O)c12 [apigenin]
Km [2]: 21.8 ± 9.15 µM

B1: UGT88C13 (TraesCS2B01G012000) (Triticum aestivum) (protein)
chain: T1 sequence (A0A3B6BZ82 1-489)
notes: also cloned in pGEX-6p-1 (GST)
Km [3]: 22.13 ± 6.54 µM | Km (purified protein [4]): 20.33 ± 5.75 µM | Km (purified protein [5]): 19.47 ± 6.76 µM

From publication PMC7383920, “Metabolomics analysis and metabolite‐agronomic trait associations using kernels of wheat (Triticum aestivum) recombinant inbred lines” (The Plant Journal, 2020)
